The values that follow come from patent US20210009703A1.

This experiment concerns the target cynomolgus CD25 expressed on cells (Cynomolgus monkey) (UniProt H6WS54). Nature of the experiment: flow cytometry on cyno-CD25-CHO-S cells, 100 nM antibody, anti-human R-PE. In general terms: A flow cytometer gives signals particle by particle.

Turning to IgG1 Isotype (antibody), the MFI came out at 82.
